{"source": "paper PMC11148769", "biological_target": "BA.2.12.1 S trimer (SARS-CoV-2) (UniProt P0DTC2)", "test": "cryo-EM structure"}
{"substance": "BA.2.12.1 S trimer (from UniProt P0DTC2 28-1208) (natural protein)", "values": [{"measurement": "stoichiometry N", "value": 3}]}
